The subject of the data set is TR4 (Nr2c2), endogenous (Mus musculus). Particulars: ChIP with anti-TR4 in RAW264.7 cells versus IgG.

For the substance CD36 promoter region (ChIP amplicon), the binding signal was above 4 fold.

The record behind these values is patent US20110028538.
